Results published in patent US20230310573A1 (Janssen / Centocor, published 2023).

Key:
[1] = target: T1, Recombinant soluble RSV F stabilized in the pre-fusion conformation (soluble, processed, stabilized RSV F … (respiratory syncytial virus (RSV), UniProt P03420 26-513)); assay: sandwich ELISA: antibody coated, preF titrated, CR9506-HRP detection; preF alone
T1 construct: also called RSV pre-fusion F protein; RSV prefusion F

[2] = target: T1, Recombinant soluble RSV F stabilized in …; assay: sandwich ELISA: antibody coated, preF titrated, CR9506-HRP detection; preF + DMSO
[3] = target: T1, Recombinant soluble RSV F stabilized in …; assay: sandwich ELISA: antibody coated, preF titrated, CR9506-HRP detection; preF + compound III, trimer:compound 1:3
[4] = target: T1, Recombinant soluble RSV F stabilized in …; assay: sandwich ELISA: antibody coated, preF titrated, CR9506-HRP detection; preF + compound VII, trimer:compound 1:3
[5] = target: T1, Recombinant soluble RSV F stabilized in …; assay: sandwich ELISA: antibody coated, preF titrated, CR9506-HRP detection; preF + compound III, trimer:compound 1:10
[6] = target: T1, Recombinant soluble RSV F stabilized in …; assay: sandwich ELISA: antibody coated, preF titrated, CR9506-HRP detection; preF + compound III, trimer:compound 1:50
[7] = target: T1, Recombinant soluble RSV F stabilized in …; assay: sandwich ELISA: antibody coated, preF titrated, CR9506-HRP detection; preF + compound VII, trimer:compound 1:10
[8] = target: T1, Recombinant soluble RSV F stabilized in …; assay: sandwich ELISA: antibody coated, preF titrated, CR9506-HRP detection; preF + compound VII, trimer:compound 1:50

B1: CR9506 (antibody, human IgG1, kappa, V domains shown)
VH: EVQLVQSGAEVKKPGSSVKVSCKASGGTFSRSLITWVRQAPGQGLEWMGEISLVFGSAKNAQKFQGRVTITADESTSTAHMEMISLKHEDTAVYYCAAHQYGSGTHNNFWDESELRFDLWGQGTLVTVSS
VL: DIVMTQSPSSLSASVGDRVTIACRASQSIGTYLNWYQQKPGKAPKLLIYAASSLQSGVPSRFSGSGSGTHFTLAISSLQAEDFATYSCQQSYTIPYTFGQGTKLEIKR
notes: An HRP-labelled CR9506 was also the detection antibody in the ELISA; also called CR9506 (pan)
For B1, the IC50 [1] was 0.28 nM, the EC50 [2] was 0.29 nM and the “EC50 (half-maximal binding concentration)” value [3] was 0.3 nM. For the same binder, the EC50 [4] was 0.32 nM, the “EC50 (half-maximal binding concentration)” value [5] was 0.29 nM and the EC50 [6] was 0.31 nM. The EC50 [7] was 0.29 nM and the “EC50 (half-maximal binding concentration)” value [8] was 0.31 nM.
